Target: chimeric avidin mutant A/A2-B I109K
Test: SDS-PAGE stability assay; 55 µM acetylated protein in pH 7 buffer, with or without biotin-5-fluorescein, 20 min at 20-100°C, sample buffer without SDS, 15% gel; control boiled with 2% SDS and 0.5% β-mercaptoethanol

stoichiometry N: 4
Substance: chimeric avidin mutant A/A2-B I109K

Reference: paper PMC3954883
